According to publication PMC11077089, “Molecular basis of A. thaliana KEOPS complex in biosynthesizing tRNA t^6A” (Nucleic Acids Research, 2024):

Columns and labels:
[1] = target: the molecule itself; assay: cell-based or functional assay
[2] = target: the molecule itself; assay: cryo-EM structure; AtKEOPS mixed with tRNA^ArgCCU at 1:2; tRNA not seen; six subunits resolved (KAE1, PCC1, PCC1, KAE1, BUD32, CGI121); 3.2 Å after local refinement
[3] = target: the molecule itself; assay: SEC; oligomeric state from elution volumes (Superdex 200 Increase 10/300 GL, HiLoad 16/600 Superdex 200) with reference to ScKEOPS (monomeric, 117.7 kDa) and standard calibration

B1: A. thaliana KEOPS variant PCC1^R73D–KAE1–BUD32–CGI121 (complex, Arabidopsis thaliana)
chain 1: MKKKMIAIGFEGSANKIGVGIVTLDGTILANPRHTYITPPGHGFLPRETAHHHLDHVLPLVKSALETSQVTPEEIDCICYTKGPGMGAPLQVSAIVVRVLSQLWKKPIVAVNHCVAHIEMGRVVTGADDPVVLYVSGGNTQVIAYSEGRYRIFGETIDIAVGNCLDRFARVLKLSNDPSPGYNIEQLAKKGENFIDLPYAVKGMDVSFSGILSYIETTAEEKLKNNECTPADLCYSLQETVFAMLVEITERAMAHCDKKDVLIVGGVGCNERLQEMMRTMCSERDGKLFATDDRYCIDNGAMIAYTGLLAFVNGIETPIEDSTFTQRFRTDEVHAVWREKEAVLLGDKKVAAN
chain 2: MDCEENVRDESLVLIKQGAEARVFESTFAGRRSIVKERFSKKYRHPILDAKLTLKRLNAEARCMTKARKLGVCTPVLYAVDTLLHSLTLEYIEGVSVKDIFLEFGTNGVVEERLDDVAAQIGAAIAKLHDGGLAHGDLTTSNMLVRSGTNQLVLIDFGLSVTSTLPEDKAVDLYVLERALLSMHSSCGNVMDRILTAYRKSSKQWSATFNKLAQVRQRGRKRTMIG
chain 3: MKVFNLDRGNTLSVSLFSGVTNSKELLNSMLDGSLKLEVSFLNASLIPDIFPLLAAAQKALISKSRDSLSTRTLHSELVYNYSGSKHITESLKRCGISENTTYILAARFNASPVEMEEVAKLINGKEIDLEELKTHANQANILKHYKITSQELGISSLGDAIVCRIAARDAL
chain 4: MAATVPATTRSDQTWDFSCNLDVSFESEEHALIAYTSLAVDKELQPDKVRRVMSVSNNKLSVHFEAIEARLLDASFSAFVDVLTLATRTIQEFGQK
[1]
  t^6A-catalytic activity relative to AtKEOPS dimer: ~25%

B2: Arabidopsis thaliana PCC1 (natural protein)
chain: MAATVPATTRSDQTWDFSCNLDVSFESEEHALIAYTSLAVDKELQPDKVRRVMSVSNNKLSVHFEAIEARLLRASFSAFVDVLTLATRTIQEFGQK
notes: AtPCC1, A. thaliana, from chemically synthesized DNA; Forms a homodimer in the cryo-EM structure; also called AtPCC1; AT5G53045; source: E. coli (Rosetta DE3 pLysS or BL21), co-expressed with KAE1, purified (Ni-NTA, SEC)
[2]
  binding result: binds

B3: A. thaliana KAE1–PCC1 subcomplex (complex, Arabidopsis thaliana)
chain 1: MKKKMIAIGFEGSANKIGVGIVTLDGTILANPRHTYITPPGHGFLPRETAHHHLDHVLPLVKSALETSQVTPEEIDCICYTKGPGMGAPLQVSAIVVRVLSQLWKKPIVAVNHCVAHIEMGRVVTGADDPVVLYVSGGNTQVIAYSEGRYRIFGETIDIAVGNCLDRFARVLKLSNDPSPGYNIEQLAKKGENFIDLPYAVKGMDVSFSGILSYIETTAEEKLKNNECTPADLCYSLQETVFAMLVEITERAMAHCDKKDVLIVGGVGCNERLQEMMRTMCSERDGKLFATDDRYCIDNGAMIAYTGLLAFVNGIETPIEDSTFTQRFRTDEVHAVWREKEAVLLGDKKVAAN
chain 2: MAATVPATTRSDQTWDFSCNLDVSFESEEHALIAYTSLAVDKELQPDKVRRVMSVSNNKLSVHFEAIEARLLRASFSAFVDVLTLATRTIQEFGQK
notes: AtKAE1, A. thaliana, as m1; AtPCC1, A. thaliana, as m4; Written as the KAE1–PCC1 heterodimer unit, which by SEC forms a dimer of itself; also called KP; AtKP; source: E. coli (Rosetta DE3 pLysS or BL21), co-expressed from pET26a–AtKAE1–PCC1-6His, purified (Ni-NTA, SEC)
[3]
  stoichiometry N: 2

B4: A. thaliana KAE1–BUD32–PCC1 subcomplex (complex, Arabidopsis thaliana)
chain 1: MKKKMIAIGFEGSANKIGVGIVTLDGTILANPRHTYITPPGHGFLPRETAHHHLDHVLPLVKSALETSQVTPEEIDCICYTKGPGMGAPLQVSAIVVRVLSQLWKKPIVAVNHCVAHIEMGRVVTGADDPVVLYVSGGNTQVIAYSEGRYRIFGETIDIAVGNCLDRFARVLKLSNDPSPGYNIEQLAKKGENFIDLPYAVKGMDVSFSGILSYIETTAEEKLKNNECTPADLCYSLQETVFAMLVEITERAMAHCDKKDVLIVGGVGCNERLQEMMRTMCSERDGKLFATDDRYCIDNGAMIAYTGLLAFVNGIETPIEDSTFTQRFRTDEVHAVWREKEAVLLGDKKVAAN
chain 2: MDCEENVRDESLVLIKQGAEARVFESTFAGRRSIVKERFSKKYRHPILDAKLTLKRLNAEARCMTKARKLGVCTPVLYAVDTLLHSLTLEYIEGVSVKDIFLEFGTNGVVEERLDDVAAQIGAAIAKLHDGGLAHGDLTTSNMLVRSGTNQLVLIDFGLSVTSTLPEDKAVDLYVLERALLSMHSSCGNVMDRILTAYRKSSKQWSATFNKLAQVRQRGRKRTMIG
chain 3: MAATVPATTRSDQTWDFSCNLDVSFESEEHALIAYTSLAVDKELQPDKVRRVMSVSNNKLSVHFEAIEARLLRASFSAFVDVLTLATRTIQEFGQK
notes: AtKAE1, A. thaliana; AtBUD32, A. thaliana; AtPCC1, A. thaliana; Written as the three-subunit unit, which by SEC forms a dimer of itself; also called KBP; AtKBP; source: recombinant, heterologous expression; copies: + +
[3]
  stoichiometry N: 2

B5: A. thaliana KEOPS complex (PCC1–KAE1–BUD32–CGI121) (complex, Arabidopsis thaliana)
chain 1: MKKKMIAIGFEGSANKIGVGIVTLDGTILANPRHTYITPPGHGFLPRETAHHHLDHVLPLVKSALETSQVTPEEIDCICYTKGPGMGAPLQVSAIVVRVLSQLWKKPIVAVNHCVAHIEMGRVVTGADDPVVLYVSGGNTQVIAYSEGRYRIFGETIDIAVGNCLDRFARVLKLSNDPSPGYNIEQLAKKGENFIDLPYAVKGMDVSFSGILSYIETTAEEKLKNNECTPADLCYSLQETVFAMLVEITERAMAHCDKKDVLIVGGVGCNERLQEMMRTMCSERDGKLFATDDRYCIDNGAMIAYTGLLAFVNGIETPIEDSTFTQRFRTDEVHAVWREKEAVLLGDKKVAAN
chain 2: MDCEENVRDESLVLIKQGAEARVFESTFAGRRSIVKERFSKKYRHPILDAKLTLKRLNAEARCMTKARKLGVCTPVLYAVDTLLHSLTLEYIEGVSVKDIFLEFGTNGVVEERLDDVAAQIGAAIAKLHDGGLAHGDLTTSNMLVRSGTNQLVLIDFGLSVTSTLPEDKAVDLYVLERALLSMHSSCGNVMDRILTAYRKSSKQWSATFNKLAQVRQRGRKRTMIG
chain 3: MKVFNLDRGNTLSVSLFSGVTNSKELLNSMLDGSLKLEVSFLNASLIPDIFPLLAAAQKALISKSRDSLSTRTLHSELVYNYSGSKHITESLKRCGISENTTYILAARFNASPVEMEEVAKLINGKEIDLEELKTHANQANILKHYKITSQELGISSLGDAIVCRIAARDAL
chain 4: MAATVPATTRSDQTWDFSCNLDVSFESEEHALIAYTSLAVDKELQPDKVRRVMSVSNNKLSVHFEAIEARLLRASFSAFVDVLTLATRTIQEFGQK
notes: AtKAE1, A. thaliana, as m1; AtBUD32, A. thaliana, as m2; AtCGI121, A. thaliana, as m3; AtPCC1, A. thaliana, as m4; Written as the four-subunit protomer; In solution the wild type is an eight-subunit dimer (K2B2C2P2) of this protomer, and it stood in that form in the pull-down from seedling lysate; also called AtKEOPS; KBCP; source: reconstituted from purified KAE1–PCC1 and BUD32–CGI121 (E. coli) …
[3]
  stoichiometry N: 2
